In PMC5385526 (Scientific Reports, 2017):

B1: human aminopeptidase N (hAPN) ectodomain, soluble (domain or fragment, UniProt P15144 36-967, looked up)
chain: EKNKNANSSPVASTTPSASATTNPASATTLDQSKAWNRYRLPNTLKPDSYRVTLRPYLTPNDRGLYVFKGSSTVRFTCKEATDVIIIHSKKLNYTLSQGHRVVLRGVGGSQPPDIDKTELVEPTEYLVVHLKGSLVKDSQYEMDSEFEGELADDLAGFYRSEYMEGNVRKVVATTQMQAADARKSFPCFDEPAMKAEFNITLIHPKDLTALSNMLPKGPSTPLPEDPNWNVTEFHTTPKMSTYLLAFIVSEFDYVEKQASNGVLIRIWARPSAIAAGHGDYALNVTGPILNFFAGHYDTPYPLPKSDQIGLPDFNAGAMENWGLVTYRENSLLFDPLSSSSSNKERVVTVIAHELAHQWFGNLVTIEWWNDLWLNEGFASYVEYLGADYAEPTWNLKDLMVLNDVYRVMAVDALASSHPLSTPASEINTPAQISELFDAISYSKGASVLRMLSSFLSEDVFKQGLASYLHTFAYQNTIYLNLWDHLQEAVNNRSIQLPTTVRDIMNRWTLQMGFPVITVDTSTGTLSQEHFLLDPDSNVTRPSEFNYVWIVPITSIRDGRQQQDYWLIDVRAQNDLFSTSGNEWVLLNLNVTGYYRVNYDEENWRKIQTQLQRDHSAIPVINRAQIINDAFNLASAHKVPVTLALNNTLFLIEERQYMPWEAALSSLSYFKLMFDRSEVYGPMKNYLKKQVTPLFIHFRNNTNNWREIPENLMDQYSEVNAISTACSNGVPECEEMVSGLFKQWMENPNNNPIHPNLRSTVYCNAIAQGGEEEWDFAWEQFRNATLVNEADKLRAALACSKELWILNRYLSYTLNPDLIRKQDATSTIISITNNVIGQGLVWDFVQSNWKKLFNDYGGGSFSFSNLIQAVTRRFSTEYELQQLEQFKKDNEETGFGSGTRALEQALEKTKANIKWVKENKEVVLQWFTENSK

What was measured:
[1] = target: TGEV RBD-Fc fusion protein (bivalent RBD-Fc variant); assay: flow cytometry on cells; details: 293T cell surface, normalized to cell surface expression, read off a plot
[2] = target: porcine aminopeptidase N (pAPN) ectodomain, soluble (pig) (UniProt P15145); assay: crystal structure; HA-tagged APN ectodomains; pAPNeh: 5% PEG-1000, 10% PEG-8000 (pH ~6); native pAPN: 20% PEG-3350, 100 mM sodium acetate pH 5.6; hAPN: 20% PEG-6000, 50 mM imidazole-HCl pH 8.0; dimer in the crystals
[3] = target: seleno-Met, endoglycosidase H-treated porcine APN ectodomain (pig) (UniProt P15145); assay: as above
[4] = target: the molecule itself; assay: as above
[5] = + DTT (5 mM; 30 min, 37 °C) before assay, parent: est. 110

Row | Molecule | percent of parent [1, 5] [%] | percent of parent ([1]; - DTT, parent: est. 100) [%] | also measured
1 | wild type porcine APN on the surface of transiently transfected 293T cells (from UniProt P15145) S464C; S892C | 120 | 45 | –
2 | porcine aminopeptidase N (pAPN) ectodomain, soluble (from UniProt P15145 36-963) (domain or fragment) | – | – | stoichiometry N [2]: 2
3 | seleno-Met, endoglycosidase H-treated porcine APN ectodomain (from UniProt P15145 36-963) (domain or fragment) | – | – | stoichiometry N [3]: 2
4 | wild type porcine APN on the surface of transiently transfected 293T cells (from UniProt P15145) S464C; S929C | 110 | 19 | –
5 | wild type porcine APN on the surface of transiently transfected 293T cells (from UniProt P15145) S464C; S892C; S929C | 76 | 37 | –
6 | B1 | – | – | stoichiometry N [4]: 2
